Results taken from the Immune Epitope Database (IEDB).

What was measured:
HLA-B*07:02 = test: IEDB peptide-MHC binding, purified MHC/competitive/radioactivity; filed as Kd, often an IC50 or EC50 that approximates it; ≥ and ≤ were set here for values at or beyond the usual limits of such assays
HLA-B*40:01 = test: as above
HLA-B*44:03 = test: as above
HLA-B*40:02 = test: as above
HLA-B*45:01 = test: as above
HLA-B*44:02 = test: as above
HLA-B*18:01 = test: as above
HLA-A*02:01 = test: IEDB peptide-MHC binding, purified MHC/direct/fluorescence; filed as Kd, often an IC50 or EC50 that approximates it; ≥ and ≤ were set here for values at or beyond the usual limits of such assays
HLA-A*11:01 = test: as above; settings: source organism: Rickettsia conorii
HLA-A*31:01 = test: as above
HLA-B*15:01 = test: as above
HLA-A*69:01 = test: as above; settings: source organism: Rickettsia conorii
HLA-B*58:01 = test: as above; settings: source organism: Rickettsia conorii
HLA-A*03:01 = test: as above
HLA-B*35:01 = test: IEDB peptide-MHC binding, purified MHC/competitive/radioactivity; filed as Kd, often an IC50 or EC50 that approximates it; ≥ and ≤ were set here for values at or beyond the usual limits of such assays
HLA-B*53:01 = test: as above; settings: source organism: Dengue virus 4 Philippines/H241/1956
HLA-A*30:02 = test: as above; settings: source organism: Lymphocytic choriomeningitis virus (strain Armstrong)
HLA-A*24:02 = test: as above; settings: source organism: Lymphocytic choriomeningitis virus (strain Armstrong)
HLA-A*26:01 = test: as above; settings: source organism: Lymphocytic choriomeningitis virus (strain Armstrong)
HLA-A*29:02 = test: as above; settings: source organism: Lymphocytic choriomeningitis virus (strain Armstrong)
HLA-A*30:01 = test: as above; settings: source organism: Lymphocytic choriomeningitis virus (strain Armstrong)
HLA-A*23:01 = test: as above; settings: source organism: Lymphocytic choriomeningitis virus (strain Armstrong)
HLA-A*01:01 = test: as above; settings: source organism: Lymphocytic choriomeningitis virus (strain Armstrong)
HLA-A*32:01 = test: as above; settings: source organism: Lymphocytic choriomeningitis virus (strain Armstrong)
[1] = source organism: Dengue virus 1 Brazil/97-11/1997
[2] = source organism: SARS coronavirus Tor2
[3] = source organism: Mammarenavirus machupoense
[4] = source organism: Rickettsia conorii
[5] = source organism: Mammarenavirus guanaritoense
[6] = source organism: Giardia lamblia ATCC 50803
[7] = source organism: Haemophilus influenzae
[8] = source organism: Entamoeba histolytica HM-1:IMSS

Question: For GPLIAGGML, which Kd (HLA-B*07:02; [1]) is on record?
Answer: 127 nM

Question: With HEFVDEFYAY as the sequence, how does the Kd (HLA-B*40:01; [2]) read?
Answer: 835 nM

Question: And the Kd (HLA-B*44:03; [2])?
Answer: 0.0859 µM

Question: And the Kd (HLA-B*40:02; [2])?
Answer: 331 nM

Question: And the Kd (HLA-B*45:01; [2])?
Answer: 7210 nM

Question: And the Kd (HLA-B*44:02; [2])?
Answer: 3.5 µM

Question: What about the Kd (HLA-B*18:01; [2]) of the same sequence?
Answer: 0.0442 µM

Question: How did the Kd (HLA-B*40:01; [2]) turn out when IEELFYSYA was run?
Answer: 16000 nM

Question: And the Kd (HLA-B*44:03; [2])?
Answer: 4.6 µM

Question: And the Kd (HLA-B*40:02; [2])?
Answer: 3060 nM

Question: And the Kd (HLA-B*45:01; [2])?
Answer: 49.5 nM

Question: What about the Kd (HLA-B*44:02; [2]) of the same sequence?
Answer: 1.77 µM

Question: What about the Kd (HLA-B*18:01; [2]) of the same sequence?
Answer: 3.96 µM

Question: KEPQKPLVL was tested. Which Kd (HLA-B*40:01; [3]) did it give?
Answer: 15800 nM

Question: What about the Kd (HLA-B*44:03; [3]) of the same sequence?
Answer: ≥ 23.8 µM

Question: What about the Kd (HLA-B*40:02; [3]) of the same sequence?
Answer: 401 nM

Question: And the Kd (HLA-B*45:01; [3])?
Answer: ≥ 70800 nM

Question: What about the Kd (HLA-B*44:02; [3]) of the same sequence?
Answer: 18 µM

Question: And the Kd (HLA-B*18:01; [3])?
Answer: ≥ 77.5 µM

Question: How did the Kd (HLA-A*02:01; [4]) turn out when KLNENIIRF was run?
Answer: 1880 nM

Question: And the Kd (HLA-A*11:01)?
Answer: 5.91 µM

Question: And the Kd (HLA-A*31:01; [4])?
Answer: 1280 nM

Question: What about the Kd (HLA-B*15:01; [4]) of the same sequence?
Answer: 152 nM

Question: What about the Kd (HLA-A*69:01) of the same sequence?
Answer: 4.75 µM

Question: And the Kd (HLA-B*58:01)?
Answer: 68.6 nM

Question: And the Kd (HLA-A*03:01; [4])?
Answer: 0.554 µM

Question: Which Kd (HLA-B*35:01; source organism: Dengue virus 3 Martinique/1243/1999) does the source give for LAILFEEVM here?
Answer: 33.1 nM

Question: Which Kd (HLA-B*40:01; [5]) does the source give for LEREQIPTLI here?
Answer: 2750 nM

Question: And the Kd (HLA-B*44:03; [5])?
Answer: 12.8 µM

Question: And the Kd (HLA-B*40:02; [5])?
Answer: 559 nM

Question: And the Kd (HLA-B*45:01; [5])?
Answer: 9710 nM

Question: What about the Kd (HLA-B*44:02; [5]) of the same sequence?
Answer: 19.6 µM

Question: What about the Kd (HLA-B*18:01; [5]) of the same sequence?
Answer: ≥ 57.5 µM

Question: What does the source list for MNQERRSLR?
Answer: Kd (HLA-A*31:01; [6]): 118 nM; Kd (HLA-A*03:01; [6]): ≥ 20 µM

Question: Which results are given for NPRLCTREEF?
Answer: Kd (HLA-B*35:01; source organism: Dengue virus 4 Philippines/H241/1956): 892 nM; Kd (HLA-B*53:01): 197 nM

Question: Which results are given for QEAYYRARAG?
Answer: Kd (HLA-B*40:01; [2]): 12700 nM; Kd (HLA-B*44:03; [2]): 0.411 µM; Kd (HLA-B*40:02; [2]): 963 nM; Kd (HLA-B*45:01; [2]): 607 nM; Kd (HLA-B*44:02; [2]): 0.954 µM; Kd (HLA-B*18:01; [2]): ≥ 36.1 µM

Question: With QECNNMHLST as the sequence, how does the Kd (HLA-B*40:01; [2]) read?
Answer: 15200 nM

Question: And the Kd (HLA-B*44:03; [2])?
Answer: 7.12 µM

Question: And the Kd (HLA-B*40:02; [2])?
Answer: 595 nM

Question: And the Kd (HLA-B*45:01; [2])?
Answer: 636 nM

Question: And the Kd (HLA-B*44:02; [2])?
Answer: 5.61 µM

Question: And the Kd (HLA-B*18:01; [2])?
Answer: ≥ 70.5 µM

Question: For QEKAPDVGEL, which Kd (HLA-B*40:01; [3]) is on record?
Answer: 13000 nM

Question: And the Kd (HLA-B*44:03; [3])?
Answer: ≥ 20.9 µM

Question: What about the Kd (HLA-B*40:02; [3]) of the same sequence?
Answer: 1070 nM

Question: And the Kd (HLA-B*45:01; [3])?
Answer: 7030 nM

Question: And the Kd (HLA-B*44:02; [3])?
Answer: 2.34 µM

Question: And the Kd (HLA-B*18:01; [3])?
Answer: ≥ 44.6 µM

Question: Which results are given for REAACCHLA?
Answer: Kd (HLA-B*40:01; [2]): 236 nM; Kd (HLA-B*44:03; [2]): 1.91 µM; Kd (HLA-B*40:02; [2]): 97.5 nM; Kd (HLA-B*45:01; [2]): 11.4 nM; Kd (HLA-B*44:02; [2]): 3.03 µM; Kd (HLA-B*18:01; [2]): ≥ 31.4 µM

Question: Which Kd (HLA-A*02:01; [7]) does the source give for RMGVKSQLL here?
Answer: 3130 nM

Question: And the Kd (HLA-A*31:01; [7])?
Answer: 2070 nM

Question: What about the Kd (HLA-B*15:01; [7]) of the same sequence?
Answer: 1280 nM

Question: What about the Kd (HLA-A*03:01; [7]) of the same sequence?
Answer: 18 µM

Question: SEVAVLYQDV was tested. Which Kd (HLA-B*40:01; [2]) did it give?
Answer: 962 nM

Question: And the Kd (HLA-B*44:03; [2])?
Answer: 0.104 µM

Question: And the Kd (HLA-B*40:02; [2])?
Answer: 134 nM

Question: What about the Kd (HLA-B*45:01; [2]) of the same sequence?
Answer: 200 nM

Question: And the Kd (HLA-B*44:02; [2])?
Answer: 1.12 µM

Question: What about the Kd (HLA-B*18:01; [2]) of the same sequence?
Answer: 3.11 µM

Question: For TEVVGNVIL, which Kd (HLA-B*40:01; [2]) is on record?
Answer: 14.9 nM

Question: And the Kd (HLA-B*44:03; [2])?
Answer: 6.82 µM

Question: And the Kd (HLA-B*40:02; [2])?
Answer: 177 nM

Question: And the Kd (HLA-B*45:01; [2])?
Answer: 15100 nM

Question: What about the Kd (HLA-B*44:02; [2]) of the same sequence?
Answer: 15.2 µM

Question: And the Kd (HLA-B*18:01; [2])?
Answer: 5.87 µM

Question: Which Kd (HLA-B*40:01; source organism: Variola virus) does the source give for TEYDGHINL here?
Answer: 6.19 nM

Question: And the Kd (HLA-B*44:03; source organism: Variola virus)?
Answer: 9.88 µM

Question: What about the Kd (HLA-B*40:02; source organism: Variola virus) of the same sequence?
Answer: 0.998 nM

Question: What about the Kd (HLA-B*45:01; source organism: Variola virus) of the same sequence?
Answer: 391 nM

Question: And the Kd (HLA-B*44:02; source organism: Variola virus)?
Answer: 0.0583 µM

Question: And the Kd (HLA-B*18:01; source organism: Variola virus)?
Answer: 0.0115 µM

Question: Which Kd (HLA-B*07:02; [1]) does the source give for TPQAPTSEIQ here?
Answer: 808 nM

Question: With TPRMCTREE as the sequence, how does the Kd (HLA-B*07:02; source organism: Dengue virus 2 Jamaica/1409/1983) read?
Answer: 1930 nM

Question: What does the source list for WEVGKPRPPL?
Answer: Kd (HLA-B*40:01; [2]): 15.9 nM; Kd (HLA-B*44:03; [2]): 7.21 µM; Kd (HLA-B*40:02; [2]): 18.6 nM; Kd (HLA-B*45:01; [2]): ≥ 59600 nM; Kd (HLA-B*44:02; [2]): 5.92 µM; Kd (HLA-B*18:01; [2]): ≥ 23.9 µM

Question: Which results are given for WYKVFVPRR?
Answer: Kd (HLA-A*31:01; [8]): 102 nM; Kd (HLA-A*03:01; [8]): ≥ 20 µM

Question: What does the source list for YEDKVWDKY?
Answer: Kd (HLA-A*30:02): 2710 nM; Kd (HLA-A*24:02): ≥ 77.5 µM; Kd (HLA-A*26:01): ≥ 77.9 µM; Kd (HLA-A*29:02): ≥ 29.9 µM; Kd (HLA-A*30:01): ≥ 32.2 µM; Kd (HLA-A*23:01): ≥ 77.7 µM; Kd (HLA-A*01:01): 7.02 µM; Kd (HLA-A*32:01): ≥ 77.8 µM
